Values quoted from earlier work, collected in US20030103959A1, “Methods of providing neuroprotection and/or neurorestoration via the neural activin type IIB receptor” (priority 2001, published 2003).

Tested on: quinolinic acid (QA) rat lesion model of Huntington's Disease
Conditions: Hughes et al. 1999

B1: recombinant human (rh) activin-A: member of the TGF-β superfamily; 28 kDa disulphide-linked homodimer of two βA subunits (protein, UniProt P08476 311-426, looked up)
Inhibin beta A chain: GLECDGKVNICCKKQFFVSFKDIGWNDWIIAPSGYHANYCEGECPSHIAGTSGSSLSFHSTVINHYRMRGHSPFANLKSCCVPTKLRPMSMLYYDDGQNIIKKDIQNMIVEECGCS
- neurotrophic effects after administration: potent neurotrophic effects
